One sequence from patent US20060258607 can be followed below.

The target in this series is biotinylated human D-ghrelin (octanoylated) (Homo sapiens) (UniProt Q9UBU3). Put plainly: pulldown. As to conditions: 37 C, 1 mM Ca/Mg, 47% active.
UniProt Q9UBU3, sequence (Q9UBU3 24-51): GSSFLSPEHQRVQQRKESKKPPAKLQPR

As usually defined, the Kd is a measure of binding affinity in units of concentration. Low readings indicate tighter binding, high ones weaker binding. “CGUGUGAGGCAAUAAAACUUAAGUCCGAAGGUAACCAAUCCUACACG [SOT-C (B11trc, D-RNA)]” yielded a Kd of 100 nM. In other words, the sub-micromolar range.
